These results are taken from the supplement of paper PMC10899765.

Conditions in all cases: 20 nM; 72 h
Data set [1] relates to MCF10A. The experiment in a line: one-nucleolus phenotype percent effect (relative to siNT 0% and siNOL11 100%); higher = more cells with one nucleolus (ribosome biogenesis inhibition). The protocol: (§1)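 After 72 h, cells were fixed and stained with Hoechst and anti-fibrillarin, and nucleoli per nucleus were counted with CellProfiler. Values are plate-adjusted percent effect for the one-nucleolus and 5+ nucleoli phenotypes, normalised to siNT (0%) and to the positive controls siNOL11 or siKIF11 (100%), as the mean of biological triplicates. Percent viability is the nuclei count relative to siNT.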

The test system of data set [2] is MCF10A. The experiment in a line: 5+ nucleoli phenotype percent effect (relative to siNT 0% and siKIF11 100%); higher = more cells with five or more nucleoli. The protocol: as §1
Data set [3] has as its system MCF10A. The experiment in a line: percent viability (nuclei count relative to siNT); higher = more viable cells. The protocol: as §1

For the sequence “CCCCGGGAACGUCGAGACUGGAGC [hsa-miR-1247-3p]”, the “one-nucleolus phenotype percent effect” value in the data set with MCF10A [1] came to 41.2%. Further, the “5+ nucleoli phenotype percent effect” value with MCF10A [2] was -15.3%. The percent viability with MCF10A [3] was found to be 17.1%.
AGAGAAGAAGAUCAGCCUGCA [hsa-miR-1253]: in the data set with MCF10A [1], the “one-nucleolus phenotype percent effect” value is -16.8%. The “5+ nucleoli phenotype percent effect” value in the data set on MCF10A [2] is 37.9%. In the data set on MCF10A [3], the percent viability worked out at 84.6%.
For the sequence “CUCCUGACUCCAGGUCCUGUGU [hsa-miR-378a-5p]”, the “one-nucleolus phenotype percent effect” value in the data set on MCF10A [1] was 10.6%. For the same sequence, in the data set with MCF10A [2], the “5+ nucleoli phenotype percent effect” value was -8.66%. Further, the percent viability in the data set with MCF10A [3] stood at 25.2%.
As for “AGCUGUCUGUGUUUUCCUUCUCAG [hsa-miR-6876-3p]”, the “one-nucleolus phenotype percent effect” value in the data set with MCF10A [1] stood at 6.32%. For the same sequence, the “5+ nucleoli phenotype percent effect” value with MCF10A [2] is -19.1%. Besides, in the data set with MCF10A [3], the percent viability stood at 58.5%.
In the same order, the values of CAAGCUCGCUUCUAUGGGUCUG [hsa-miR-99a-3p] are 23.3%, -16.1% and 70%.
UUUCAGAUAACAGUAUUACAU [hsa-miR-3942-3p]: the “one-nucleolus phenotype percent effect” value in the data set with MCF10A [1] was -15.3%. The “5+ nucleoli phenotype percent effect” value with MCF10A [2] is -0.677%. Further, in the data set on MCF10A [3], the percent viability came to 58.8%.
In the case of CUGCCUGUUCUUCCACUCCAG [hsa-miR-6514-3p], the “one-nucleolus phenotype percent effect” value in the data set with MCF10A [1] amounted to 59.9%. In the data set on MCF10A [2], the “5+ nucleoli phenotype percent effect” value was -62.1%. Besides, the percent viability in the data set on MCF10A [3] amounted to 9.75%.
For “UGAGGAUAUGGCAGGGAAGGGGA [hsa-miR-3679-5p]”, the “one-nucleolus phenotype percent effect” value with MCF10A [1] is -24.2%. Further, the “5+ nucleoli phenotype percent effect” value in the data set on MCF10A [2] is 29.7%. In the data set on MCF10A [3], the percent viability came out at 100%.
On to “AGACUGACCUUCAACCCCACAG [hsa-miR-6855-3p]”, for which the “one-nucleolus phenotype percent effect” value in the data set on MCF10A [1] is -4.32%. Besides, the “5+ nucleoli phenotype percent effect” value with MCF10A [2] was -20.8%. The percent viability with MCF10A [3] amounted to 75.7%.
Taken in the same sequence, the figures for “GGCUCAUGUGUCUGUCCUCUUC [hsa-miR-6847-3p]” were -18%, 1.91% and 44.2%.
Taken in the same sequence, the figures for CGGCGCGACCGGCCCGGGG [hsa-miR-4634] were -14.3%, 24.7% and 71.2%.
For the sequence “CUUCCAGACGCUCCGCCCCACGUCG [hsa-miR-3180-5p]”, the “one-nucleolus phenotype percent effect” value in the data set with MCF10A [1] was -9.39%. In addition, the “5+ nucleoli phenotype percent effect” value with MCF10A [2] was found to be 28.4%. In addition, the percent viability in the data set on MCF10A [3] is 67.4%.
Turning to AGGAUUUCAGAAAUACUGGUGU [hsa-miR-3167], in the data set with MCF10A [1], the “one-nucleolus phenotype percent effect” value was -14.6%. The “5+ nucleoli phenotype percent effect” value in the data set on MCF10A [2] was -10.4%. Moreover, in the data set on MCF10A [3], the percent viability came out at 49.1%.
Taken in the same sequence, the figures for “UCAAGAGCAAUAACGAAAAAUGU [hsa-miR-335-5p]” were -9.96%, 37.7% and 79.4%.
ACGUUGGCUCUGGUGGUG [hsa-miR-1306-3p]: in the data set with MCF10A [1], the “one-nucleolus phenotype percent effect” value was determined as 38.2%. In addition, the “5+ nucleoli phenotype percent effect” value with MCF10A [2] was -4.59%. In the data set on MCF10A [3], the percent viability stood at 18.4%.
Taken in the same sequence, the figures for CAGCAGCAAUUCAUGUUUUGAA [hsa-miR-424-5p] were 24%, -8.58% and 77.3%.
In the same order, the values of GCCCUGAACGAGGGGUCUGGAG [hsa-miR-345-3p] are -13.5%, 29.8% and 61%.
In the case of CGGCCCGGGCUGCUGCUGUUCCU [hsa-miR-1538], the “one-nucleolus phenotype percent effect” value with MCF10A [1] is -27.8%. The “5+ nucleoli phenotype percent effect” value in the data set on MCF10A [2] turned out to be 45%. In addition, in the data set on MCF10A [3], the percent viability came out at 144%.
In the case of “UACAAGUCAGGAGCUGAAGCAG [hsa-miR-6882-5p]”, the “one-nucleolus phenotype percent effect” value with MCF10A [1] is -8.28%. Also, the “5+ nucleoli phenotype percent effect” value with MCF10A [2] is 1.17%. Moreover, in the data set with MCF10A [3], the percent viability stood at 45.8%.
In the case of “AAGCCCUUACCCCAAAAAGCAU [hsa-miR-129-2-3p]”, in the data set with MCF10A [1], the “one-nucleolus phenotype percent effect” value stood at 24%. Also, the “5+ nucleoli phenotype percent effect” value with MCF10A [2] is -31.7%. Further, the percent viability in the data set on MCF10A [3] came to 64.7%.
